Laboratory results published in patent US20220088115A1, “PHARMACEUTICAL COMPOSITION, COMPRISING INHIBITORY PEPTIDE AGAINST FAS SIGNALING, FOR PREVENTION OR TREATMENT OF OBESITY, FATTY LIVER, OR STEATOHEPATITIS” (SIGNET BIOTECH INC., priority 2018, published 2022).
Where a SMILES comes first, the peptide text is derived from it. Where no end group is shown, it is not given here.

Assays:
[1] = Stability of peptides in sera; type: in vitro ADME; conditions: compared among cyclic FBP-8, linear FBP-8 and FBP-7
[2] = test system: obese person; conditions: in vivo; cited from earlier work
[3] = molecular target: T1, Fas (Homo sapiens, UniProt P25445); assay: Binding of Alexa647-labeled peptides to Fas-expressing Jurkat cell line; conditions: Jurkat cell line always expressing Fas; Alexa647-labeled peptide
T1 construct: A Jurkat cell line, in which Fas is always expressed; host or cells: Jurkat
T1 sequence (P25445 26-335): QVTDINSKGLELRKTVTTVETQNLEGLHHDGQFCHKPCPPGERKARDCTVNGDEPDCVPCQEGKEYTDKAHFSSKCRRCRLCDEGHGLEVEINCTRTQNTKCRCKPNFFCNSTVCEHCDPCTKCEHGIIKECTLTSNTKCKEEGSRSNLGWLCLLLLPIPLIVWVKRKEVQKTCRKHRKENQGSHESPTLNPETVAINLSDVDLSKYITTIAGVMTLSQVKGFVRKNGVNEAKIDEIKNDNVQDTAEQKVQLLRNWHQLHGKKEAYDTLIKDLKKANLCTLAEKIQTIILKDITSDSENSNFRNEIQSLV
Description: A Jurkat cell line which is a human blood cancer cell line and a 3T3L1 cell line which is a murine adipocyte were purchased from ATCC (USA), and the Jurkat cell line was cultured in an RPMI culture medium containing 10% fetal bovine serum (FBS), 1% penicillin, 1% streptomycin, and 25 mM glucose.
A Jurkat cell line, in which Fas is always expressed, was treated with an FITC-labeled Fas antibody and treated with Alexa647-labeled FBP-8, FBP-A, FBP-7 or control peptide (YCNSTVCY; CtrFBP).

[4] = test system: 3T3L1 cell line; assay: Apoptosis level in 3T3L1 cell line treated with FasL and peptide (annexin V flow cytometry); type: cell-based, murine; conditions: differentiated 3T3L1 treated with Fas ligand and peptide
Description: The 3T3L1 cell line was cultured in a DMEM culture medium containing 10% FBS, 1% penicillin, 1% streptomycin, and 25 mM glucose. The 3T3L1 cell line was aliquoted into the above DMEM culture solution at a concentration of 2×10^5 cells/ml to induce adipocyte maturation for 3 days, and then replaced with a culture solution containing insulin to induce adipocyte maturation again for 3 days. Thereafter, the 3T3L1 cell line was further cultured in the above DMEM culture solution for 2 days to achieve complete maturation of adipocytes.
The 3T3L1 cell line was treated with a Fas ligand (FasL) at a concentration of 500 ng/ml to induce apoptosis, and FBP signal blocking peptides (FBP-8. FBP-A and FBP-7) and CtrFBP bound to Alexa647 were treated, respectively. After 4 hours of peptide treatment, cells were washed with DPBS and treated with FITC-bound annexin V (BD Pharmingen) to analyze the apoptosis inhibitory effect by a flow cytometer.

[5] = test system: obesity model mice; assay: TUNEL staining of dead cells, obesity model mice, intravenous FBP-8; type: in vivo, C57BL/6 mice; conditions: intravenous twice a week for 5 weeks
Description: All animal experiments performed for the present invention were approved by the Institutional Animal Care and Use Committee of Hanyang University. […] Thereafter, depending on the experimental group, 60 μg/one time of FBP8 were administered by intravenous injection twice a week for a total of 5 weeks (FIG. 13), or FBP7 was administered by subcutaneous injection twice a day.
Furthermore, a terminal deoxynucleotidyl transferase dUTP nick end labeling (TUNEL) analysis for each tissue was performed with an in situ cell death detection kit (Millipore, USA). Thereafter, the fluorescence signals were analyzed under a TCS-SP5 confocal microscope by staining the nuclei with Hoechst 33342, and the fluorescence signals of each cell were analyzed with the Image J program.
Obesity model mice were produced by feeding normal mice a high fat diet for 8 weeks, and FBP-8 was administered by intravenous injection twice a week for a total of 5 weeks (FIG. 13). After five weeks, the obesity model mice were sacrificed to isolate white adipose tissues and liver tissues and analyze the proportion of dead cells by TUNEL staining.

[6] = molecular target: T2, Fas on Jurkat cell line (human blood cancer cell line in which Fas is always expressed) (human, UniProt P25445 26-335); assay: cell-based or functional assay
T2 sequence (looked up): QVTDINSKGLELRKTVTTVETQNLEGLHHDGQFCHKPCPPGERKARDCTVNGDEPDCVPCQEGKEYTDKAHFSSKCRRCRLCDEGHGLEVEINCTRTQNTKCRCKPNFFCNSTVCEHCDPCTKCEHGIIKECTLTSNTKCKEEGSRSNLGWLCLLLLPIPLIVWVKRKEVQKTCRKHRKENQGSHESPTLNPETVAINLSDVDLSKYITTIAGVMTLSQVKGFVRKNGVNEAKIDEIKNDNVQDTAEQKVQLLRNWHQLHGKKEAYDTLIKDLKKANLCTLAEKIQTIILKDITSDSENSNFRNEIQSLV

## N[C@@H](Cc1ccc(O)cc1)C(=O)N[C@@H](CS)C(=O)N[C@@H](CC(=O)O)C(=O)N[C@@H](CCC(=O)O)C(=O)N[C@@H](Cc1c[nH]cn1)C(=O)N[C@@H](Cc1ccccc1)C(=O)N[C@@H](Cc1ccc(O)cc1)C(=O)O [FBP-7, YCDEHFY] (H-YCDEHFY-OH; N-terminus and C-terminus assumed)
[1]
  serum stability: the best

## CCCCCCCCCCCCCCCC(=O)N[C@@H](CCC(=O)NCCCC[C@H](NC(=O)[C@H](C)NC(=O)[C@H](C)NC(=O)[C@H](CCC(N)=O)NC(=O)CNC(=O)[C@H](CCC(=O)O)NC(=O)[C@H](CC(C)C)NC(=O)[C@H](Cc1ccc(O)cc1)NC(=O)[C@H](CO)NC(=O)[C@H](CO)NC(=O)[C@@H](NC(=O)[C@H](CC(=O)O)NC(=O)[C@H](CO)NC(=O)[C@@H](NC(=O)[C@H](Cc1ccccc1)NC(=O)[C@@H](NC(=O)CNC(=O)[C@H](CCC(=O)O)NC(=O)[C@H](C)NC(=O)[C@@H](N)Cc1cnc[nH]1)[C@@H](C)O)[C@@H](C)O)C(C)C)C(=O)N[C@@H](CCC(=O)O)C(=O)N[C@@H](Cc1ccccc1)C(=O)N[C@H](C(=O)N[C@@H](C)C(=O)N[C@@H](Cc1c[nH]c2ccccc12)C(=O)N[C@@H](CC(C)C)C(=O)N[C@H](C(=O)N[C@@H](CCCNC(=N)N)C(=O)NCC(=O)N[C@@H](CCCNC(=N)N)C(=O)NCC(=O)O)C(C)C)[C@@H](C)CC)C(=O)O [liraglutide]
[2]
  side effects: nausea, vomiting, diarrhea, and constipation

## YCDEHFAY (Fas binding peptide-A (FBP-A))
[3]
  binding to Jurkat cells (Alexa647 signal): bound to Jurkat cells at similar levels

## YCNSTVCY (control peptide) [CtrFBP, control peptide used as negative control, reference compound]
[4]
  apoptosis level: 23±5.12%
[3]
  binding to Jurkat cells (Alexa647 signal): hardly bound to Jurkat cells
[5]
  proportion of dead cells in liver tissue (TUNEL): 17+7.98%
  proportion of dead cells in white adipose tissue (TUNEL): 51±2.98%

B1: Control Peptide (CTRP) (peptide)
peptide: YCNSTVCY
modifications: cysteine pairing not given here; also: Alexa647 label, attachment site not given here
[6]
  apoptosis level of Jurkat cells treated with Fas ligand (FasL) and peptide: 31%

B2: Fas Blocking Peptide (FBP or FBP-8) (peptide)
peptide: YCDEHFCY
modifications: cysteine pairing not given here; also: Alexa647 or Alexa 488 label, attachment site not given here
[6]
  apoptosis level of Jurkat cells treated with Fas ligand (FasL) and peptide: 17%

## YCDEHFAY (also: Alexa647 label, attachment site not given here) [Fas Blocking Peptide A (FBPA)]
[6]
  apoptosis level of Jurkat cells treated with Fas ligand (FasL) and peptide: 15%

## YCDEHFY (also: Alexa647 label, attachment site not given here) [Fas Blocking Peptide 7 (FBP7)]
[6]
  apoptosis level of Jurkat cells treated with Fas ligand (FasL) and peptide: 14%
